Series [1] addresses T1, human PXR-LBD (pregnane X receptor ligand binding domain, residues 130-434) with N-terminal 6x His (human, UniProt O75469 130-434).
T1 construct: also called apo PXR; not shown: N-terminal 6x His tag
T1 sequence: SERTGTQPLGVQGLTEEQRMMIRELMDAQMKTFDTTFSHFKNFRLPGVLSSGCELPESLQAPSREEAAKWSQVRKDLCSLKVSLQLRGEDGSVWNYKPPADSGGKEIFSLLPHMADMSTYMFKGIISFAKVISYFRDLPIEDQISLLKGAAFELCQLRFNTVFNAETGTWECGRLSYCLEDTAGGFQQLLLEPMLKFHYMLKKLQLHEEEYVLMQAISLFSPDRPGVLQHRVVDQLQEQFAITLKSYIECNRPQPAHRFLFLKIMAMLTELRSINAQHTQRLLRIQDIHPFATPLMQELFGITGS
The series is described as follows: temperature-dependent circular dichroism (thermal denaturation), shift against apo PXR (Tm 41.5 C). A general note: Circular dichroism is widely used to follow secondary structure.

Series [2] has as its target T1, human PXR-LBD (pregnane X receptor …). The series is described as follows: temperature-dependent circular dichroism (thermal denaturation) of PXR with 50 uM peptide.
Series [3] has the same target. The series is described as follows: temperature-dependent circular dichroism (thermal denaturation at 220 nm), 2.5 uM PXR, 50 uM peptide.

For CPSSHSSLTERHKILHRLLQEGSPS [SRC-1 peptide (676-CPSSHSSLTERHKILHRLLQEGSPS-700)], the ΔTm in series [1] turned out to be 4 C. In addition, in series [2], the Tm is 45.5 C. The Kd (in general, the constant that tells how readily two partners part at equilibrium) in series [3] worked out at 1340 nM.
